From FireProtDB (doi:10.1046/j.1432-1327.1999.00918.x)

Settings: Homo sapiens; pH 2.7; Thermal; DSC; glycine 0.05 M; reversible: yes; whole UniProt chain shown

B1: Lysozyme C wild type, P61626 (protein)
chain: MKALIVLGLVLLSVTVQGKVFERCELARTLKRLGMDGYRGISLANWMCLAKWESGYNTRATNYNAGDRSTDYGIFQINSRYWCNDGKTPGAVNACHLSCSALLQDNIADAVACAKRVVRDPQGIRAWVAWRNRCQNRDVRQYVQGCGV
For B1, the Tm was 64.9 °C, the “heat capacity change of unfolding” value was 1.55 kcal/mol/K and the “unfolding enthalpy (calorimetric)” value was 114 kcal/mol.
